Source: paper PMC3439906

Molecular target: M.EcoKI MTase (M2S1 methyltransferase core of the EcoKI Type I RM system) (E. coli K12) (UniProt P08957)
Assay: ITC

UniProt P08957, sequence (P08957 whole entry, chain 1 of 2): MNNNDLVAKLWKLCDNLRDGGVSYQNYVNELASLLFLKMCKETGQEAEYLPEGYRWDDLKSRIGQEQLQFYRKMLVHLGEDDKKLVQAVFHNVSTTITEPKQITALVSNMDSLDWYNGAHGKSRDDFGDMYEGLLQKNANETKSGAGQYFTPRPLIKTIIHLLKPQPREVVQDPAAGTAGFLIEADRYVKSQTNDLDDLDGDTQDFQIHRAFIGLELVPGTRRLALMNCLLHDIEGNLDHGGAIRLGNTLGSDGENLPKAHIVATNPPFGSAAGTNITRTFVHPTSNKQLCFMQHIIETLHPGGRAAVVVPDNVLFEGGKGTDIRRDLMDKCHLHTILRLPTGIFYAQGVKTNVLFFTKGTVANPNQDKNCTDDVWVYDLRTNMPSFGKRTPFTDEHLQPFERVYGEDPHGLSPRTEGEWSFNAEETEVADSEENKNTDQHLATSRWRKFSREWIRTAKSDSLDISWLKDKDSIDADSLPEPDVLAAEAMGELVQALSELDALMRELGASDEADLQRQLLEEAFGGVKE
UniProt P08957, sequence (P05719 whole entry, chain 2 of 2, further chain): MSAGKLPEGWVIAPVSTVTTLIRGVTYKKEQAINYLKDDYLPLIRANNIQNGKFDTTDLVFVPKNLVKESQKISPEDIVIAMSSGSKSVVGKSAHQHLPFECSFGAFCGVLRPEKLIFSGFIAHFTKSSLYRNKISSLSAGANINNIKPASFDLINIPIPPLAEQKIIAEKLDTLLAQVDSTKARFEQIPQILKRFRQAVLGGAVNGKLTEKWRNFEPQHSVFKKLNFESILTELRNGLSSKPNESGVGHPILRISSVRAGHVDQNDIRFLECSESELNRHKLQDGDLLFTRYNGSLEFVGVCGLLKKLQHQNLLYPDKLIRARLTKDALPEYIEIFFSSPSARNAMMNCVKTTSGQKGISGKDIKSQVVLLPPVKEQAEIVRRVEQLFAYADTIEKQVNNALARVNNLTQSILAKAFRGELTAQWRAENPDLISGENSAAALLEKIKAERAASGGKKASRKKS

## Ocr/POcr (natural protein)
  dH: -15.3 kcal/mol
  stoichiometry N (Ocr dimers per M.EcoKI): 0.89
